Measurements: article PMC3680705 (The Journal of biological chemistry, 2006)

Target: T1, Drosophila Slit D2 (second leucine-rich repeat domain) (Drosophila, UniProt P24014 310-526, two N-linked glycans)
T1 sequence: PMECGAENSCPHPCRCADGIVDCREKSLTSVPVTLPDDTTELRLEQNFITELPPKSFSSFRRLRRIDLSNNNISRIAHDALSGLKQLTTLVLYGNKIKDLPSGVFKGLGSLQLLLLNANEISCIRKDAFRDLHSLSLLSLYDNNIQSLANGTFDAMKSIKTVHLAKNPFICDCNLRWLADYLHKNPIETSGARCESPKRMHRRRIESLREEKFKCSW
Assay: SEC

B1: Drosophila Robo IG1–2 (domain or fragment)
chain: not shown
- stoichiometry N: 1
